Experimental data from paper PMC5138130 (Journal of molecular biology, 2016).
Numbering of substitutions follows the chain as printed. Names and notes keep the numbering of the source. Values joined by “and” are separate entries in the source; they are usually repeats but may differ in a detail not shown here. Identical values can stand only once.

Columns and labels:
[1] = molecular target: Bni5(1–313) used for FFF-MALS (S. cerevisiae) (UniProt P53890); assay: field-flow fractionation with multi-angle light scattering
[2] = molecular target: Otherwise Cys-less septin hetero-octamers capped with Cdc11(Δα0) E294C labeled with AF555 (S. cerevisiae) (UniProt P32458); assay: FRET or BRET
[3] = molecular target: T1, (His)8-3C protease cleavage site-Bni5 fusion (wild-type Bni5) (S. cerevisiae), P53890; assay: AUC; details: remark: other sources report otherwise
T1 chain: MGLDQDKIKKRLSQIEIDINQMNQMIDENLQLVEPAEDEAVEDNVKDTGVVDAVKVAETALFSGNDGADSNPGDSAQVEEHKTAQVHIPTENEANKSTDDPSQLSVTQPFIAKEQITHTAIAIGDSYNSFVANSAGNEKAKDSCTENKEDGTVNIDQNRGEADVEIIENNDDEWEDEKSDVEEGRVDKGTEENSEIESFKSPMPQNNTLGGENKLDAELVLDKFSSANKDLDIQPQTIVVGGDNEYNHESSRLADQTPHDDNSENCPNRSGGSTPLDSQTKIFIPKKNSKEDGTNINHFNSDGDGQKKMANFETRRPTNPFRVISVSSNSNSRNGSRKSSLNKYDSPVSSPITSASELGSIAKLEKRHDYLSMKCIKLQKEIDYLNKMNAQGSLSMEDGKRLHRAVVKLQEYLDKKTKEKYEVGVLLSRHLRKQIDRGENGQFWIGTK

[4] = molecular target: T1, (His)8-3C protease cleavage site-Bni5 …; assay: field-flow fractionation with multi-angle light scattering; details: remark: other sources report otherwise
[5] = molecular target: T2, (His)8-3C protease cleavage site-Bni5 fusion (wild-type Bni5) (S. cerevisiae, UniProt P53890 1-448); assay: negative-stain electron microscopy with 2D class averages
T2 sequence (looked up): T1 chain

[6] = molecular target: the molecule itself; assay: as above

“Bni5(1–313) used for FFF-MALS (from UniProt P53890 1-313) (domain or fragment)” was tested, and the stoichiometry N [1] was 2 and 4.

B1: Bni5(314–448) C375 labeled with AF647 (domain or fragment)
chain: TRRPTNPFRVISVSSNSNSRNGSRKSSLNKYDSPVSSPITSASELGSIAKLEKRHDYLSMKCIKLQKEIDYLNKMNAQGSLSMEDGKRLHRAVVKLQEYLDKKTKEKYEVGVLLSRHLRKQIDRGENGQFWIGTK
modifications: AF647 (Alexa Fluor 647 maleimide) on C375
Molecule B1 has an EC50 [2] of 614 nM.

B2: Bni5(C144R C266F) labeled with AF647 at C375 (natural protein)
chain: T1 chain with C144R, C266F
modifications: AF647 (Alexa Fluor 647 maleimide) on C375
B2 was tested, and the Kd [2] was 154 nM.

B3: (His)8-3C protease cleavage site-Bni5 fusion (wild-type Bni5), P53890 1-448 (natural protein)
chain: T1 chain
B3 was tested, and the stoichiometry N [3] was 2 and the stoichiometry N [4] was 2 and 4.

B4: Cdc11 (wild type), terminal subunit of the septin hetero-octamer (natural protein, S. cerevisiae, UniProt P32458 1-415, looked up)
chain: MSGIIDASSALRKRKHLKRGITFTVMIVGQSGSGRSTFINTLCGQQVVDTSTTILLPTDTSTEIDLQLREETVELEDDEGVKIQLNIIDTPGFGDSLDNSPSFEIISDYIRHQYDEILLEESRVRRNPRFKDGRVHCCLYLINPTGHGLKEIDVEFIRQLGSLVNIIPVISKSDSLTRDELKLNKKLIMEDIDRWNLPIYNFPFDEDEISDEDYETNMYLRTLLPFAIIGSNEVYEMGGDVGTIRGRKYPWGILDVEDSSISDFVILRNALLISHLHDLKNYTHEILYERYRTEALSGESVAAESIRPNLTKLNGSSSSSTTTRRNTNPFKQSNNINNDVLNPASDMHGQSTGENNETYMTREEQIRLEEERLKAFEERVQQELLLKRQELLQREKELREIEARLEKEAKIKQEE
B4: binds [5].

B5: Cdc11-capped septin hetero-octamers containing Cdc10-GFP as the sole source of Cdc10 (complex, S. cerevisiae)
chain 1: B4 chain
chain 2: MSAATATAAPVPPPVGISNLPNQRYKIVNEEGGTFTVMLCGESGLGKTTFINTLFQTVLKRADGQQHRQEPIRKTVEIDITRALLEEKHFELRVNVIDTPGFGDNVNNNKAWQPLVDFIDDQHDSYMRQEQQPYRTKKFDLRVHAVLYFIRPTGHGLKPIDIETMKRLSTRANLIPVIAKADTLTAQELQQFKSRIRQVIEAQEIRIFTPPLDADSKEDAKSGSNPDSAAVEHARQLIEAMPFAIVGSEKKFDNGQGTQVVARKYPWGLVEIENDSHCDFRKLRALLLRTYLLDLISTTQEMHYETYRRLRLEGHENTGEGNEDFTLPAIAPARKLSHNPRYKEEENALKKYFTDQVKAEEQRFRQWEQNIVNERIRLNGDLEEIQGKVKKLEEQVKSLQVKKSHLK
chain 3: MSLKEEQVSIKQDPEQEERQHDQFNDVQIKQESQDHDGVDSQYTNGTQNDDSERFEAAESDVKVEPGLGMGITSSQSEKGQVLPDQPEIKFIRRQINGYVGFANLPKQWHRRSIKNGFSFNLLCVGPDGIGKTTLMKTLFNNDDIEANLVKDYEEELANDQEEEEGQGEGHENQSQEQRHKVKIKSYESVIEENGVKLNLNVIDTEGFGDFLNNDQKSWDPIIKEIDSRFDQYLDAENKINRHSINDKRIHACLYFIEPTGHYLKPLDLKFMQSVYEKCNLIPVIAKSDILTDEEILSFKKTIMNQLIQSNIELFKPPIYSNDDAENSHLSERLFSSLPYAVIGSNDIVENYSGNQVRGRSYPWGVIEVDNDNHSDFNLLKNLLIKQFMEELKERTSKILYENYRSSKLAKLGIKQDNSVFKEFDPISKQQEEKTLHEAKLAKLEIEMKTVFQQKVSEKEKKLQKSETELFARHKEMKEKLTKQLKALEDKKKQLELSINSASPNVNHSPVPTKKKGFLR
chain 4: MDPLSSVQPASYVGFDTITNQIEHRLLKKGFQFNIMVVGQSGLGKSTLINTLFASHLIDSATGDDISALPVTKTTEMKISTHTLVEDRVRLNINVIDTPGFGDFIDNSKAWEPIVKYIKEQHSQYLRKELTAQRERFITDTRVHAILYFLQPNGKELSRLDVEALKRLTEIANVIPVIGKSDTLTLDERTEFRELIQNEFEKYNFKIYPYDSEELTDEELELNRSVRSIIPFAVVGSENEIEINGETFRGRKTRWSAINVEDINQCDFVYLREFLIRTHLQDLIETTSYIHYEGFRARQLIALKENANSRSSAHMSSNAIQR
B5: binds [6].

B6: Wild-type Cdc11-capped septin hetero-octamers (Cdc11-Cdc12-Cdc3-Cdc10-Cdc10-Cdc3-Cdc12-Cdc11) used for EM (complex, S. cerevisiae)
chain 1: B4 chain
chain 2: B5 chain 2
chain 3: B5 chain 3
chain 4: B5 chain 4
B6: binds [6].
